Literature values in paper PMC3462298.

Tests used:
TRTK-12 = TRTK-12 (UniProt P52907); assay: fluorescence competition
[1] = biological target: TAMRA-TRTK-12 (CapZ peptide) (Homo sapiens); assay: fluorescence polarization

Kd (TRTK-12): 2.9 µM
Kd [1]: 1.2 µM
Substance: S100B (from UniProt P04631)
